Measurements published in patent US20130309252A1 (UNIVERSITE DE LA MEDITERRANEE AIX MARSEILLE II, published 2013).
Where no end group is shown, it is not given here.

Tests used:
[1] = target: T1, Grasp55 PDZII (80-160), yeast two-hybrid construct (murine, UniProt Q99JX3 80-160); assay: yeast two-hybrid, growth on selective medium
T1 construct: also called isolated second PDZ domain
Text: (§1) The different GRASP55 constructs were cloned into pGBT9 GW vector (Ga14 DNA-binding domain fusion vector, Trp) as well in the pACT2 GW vector (Gal4 DNA-activation domain fusion vector, Leu) using the Gateway technology (Invitrogen). Plasmids were then co-transformed in AH109 yeast strain (/MATa, trp1-901, leu2-3, 112, ura3-52, his3-200, gal4/A, /gal80/A, /LYS2::GAL1//UAS//-GAL1//TATA//-HIS3, GAL2//UAS//-GAL2//TATA//-ADE2, URA3::MEL1//UAS//-MEL1//TATA//-lacZ, MEL1/) in accordance with the previously described transformation protocol (Chien et al. 1991. Proc Natl Acad Sci USA. 88:9578-82). Following co-transformation with the two vectors containing the different constructs (as well as the empty vector to test self activation), yeasts were plated onto Synthetic Complete (SC) medium minus Leucine (−L), minus Tryptophan (−W), minus Histidine (−H) and incubated at 30° C. for 4 to 5 days. All yeast media were prepared as previously described.
(§2) GST fusion proteins were produced and yeast two-hybrid assay was performed as previously described in example 1.

[2] = target: T2, Grasp55 PDZI (1-79), yeast two-hybrid construct (murine, UniProt Q99JX3 1-79); assay: yeast two-hybrid, growth on selective medium
T2 construct: also called isolated first PDZ domain
Text: as §1, §2

[3] = target: Grasp55 PDZI + II (1-160), yeast two-hybrid construct (murine, UniProt Q99JX3 1-160); assay: yeast two-hybrid, growth on selective medium
Text: as §1, §2

[4] = target: T3, Grasp55 FL, yeast two-hybrid construct (murine, UniProt Q99JX3 1-451); assay: yeast two-hybrid, growth on selective medium
T3 construct: Gal4 fusion expressed in yeast AH109; also called wt Grasp55
Text: as §1, §2

[5] = target: T4, Grasp55 (Golgi reassembly-stacking protein of 55 kDa), endogenous mouse protein in cell lysates (murine, UniProt Q99JX3 2-451, limits assumed); assay: co-immunoprecipitation, anti-GRASP55 blot
T4 construct: Endogenous protein detected by mass spectrometry or anti-GRASP55 blot
Description: (§3) Total cell lysates were used as controls. Proteins were then resolved on SDS-PAGE and blotted with anti-GRASP55 antibody. Arrows indicate the signal corresponding to Grasp55.
Protein concentration of the samples was determined according to the Bradford method.

[6] = target: Grasp55 PDZI′ (1-107), yeast two-hybrid construct (murine, UniProt Q99JX3 1-107); assay: yeast two-hybrid, growth on selective medium
Text: as §1, §2

[7] = target: Grasp55 PDZI′ + II′ (1-208), yeast two-hybrid construct (murine, UniProt Q99JX3 1-208); assay: yeast two-hybrid, growth on selective medium
Text: as §1, §2

[8] = target: Grasp55 PDZII′ (108-208), yeast two-hybrid construct (murine, UniProt Q99JX3 108-208); assay: yeast two-hybrid, growth on selective medium
Text: as §1, §2

GST-GRASP55 PDZ I = target: T5, GST-GRASP55 PDZ I (murine); assay: ELISA, GST fusion on glutathione plate, biotinylated peptide
T5 construct: also called PDZ I of Grasp55; PDZI (1-79)
Description: (§4) Ninety-six well plates coated with glutathione were incubated overnight with various GST fusion proteins. The plates were then washed, blocked and incubated with JAMs biotinylated peptides with or without PDZ binding motif. […] Results are expressed as Mean+/−SEM of Relative Unit of absorbance measured at 450 nm. […] One representative experiment is shown.
(§5) To set up ELISA test, various proteins of soluble GST-GRASP55 proteins were incubated on ninety-six-well plates (Nalge Nunc International) coated with glutathione. Plates were then washed and blocked with buffer containing PBS and 2% of bovine albumin for 2 hours. […] After three successive washes, streptavidin-HRP was added to reveal the various complexes, followed by a HRP substrate, tetramethylbenzidine (TMB). Absorbance (OD_{450 nm}) was determined on an ELISA POLARstar reader.

[9] = target: T4, Grasp55 (Golgi reassembly-stacking …); assay: peptide pull-down of KLN205 lysates, mass spectrometry
Text: As control, the same peptides, but deleted of the last three amino-acids known as the functional PDZ binding motif of JAM family members, were used.

[10] = target: T6, GST-PDZI′ recombinant Grasp55 protein (murine); assay: HTRF competition against biotinylated JAM-C peptide
T6 construct: also called Grasp-GST-PDZI′; PDZI′-GST-construct
Description: (§6) In some experiments, competing peptide or chemicals were added to the incubation mix at the indicated concentration. After incubation, microtiter plates (Costar #3693) were red using PolarScan Omega (BMG Labtech) equipped for HTRF measurements. Upon excitation at 320 nm, a 620 nm fluorescence emission is produced by the donor terbium that in turn excites a 665 nm light emission by a Streptavidin-d2 (acceptor) bound to the Biotinylated interacting Peptide if the latter is interacting with the donor. The […] R ratio is obtained and a Delta F is computed as: [(Rₛₐₘₚₗₑ−RNSB)/RNSB]*100 where RNSB is the Non Specific Background signal determined in incubates where the GST-fusion protein was omitted.

[11] = target: T4, Grasp55 (Golgi reassembly-stacking …); assay: peptide pull-down of cell lysates, anti-GRASP55 blot
Text: as §3

[12] = target: T7, GST-PDZI′+II′ recombinant Grasp55 protein (murine); assay: HTRF
T7 construct: also called Grasp-GST-PDZI′+II′
Description: as §6

[13] = target: T6, GST-PDZI′ recombinant Grasp55 protein; assay: HTRF
Description: as §6

GST-GRASP55 PDZ I+II = target: T8, GST-GRASP55 PDZ I+II (murine); assay: ELISA, GST fusion on glutathione plate, biotinylated peptide
T8 construct: also called PDZ I+II of Grasp55; PDZI+II (1-160)
Description: as §4, §5

T6 sequence (chain, as listed by the source): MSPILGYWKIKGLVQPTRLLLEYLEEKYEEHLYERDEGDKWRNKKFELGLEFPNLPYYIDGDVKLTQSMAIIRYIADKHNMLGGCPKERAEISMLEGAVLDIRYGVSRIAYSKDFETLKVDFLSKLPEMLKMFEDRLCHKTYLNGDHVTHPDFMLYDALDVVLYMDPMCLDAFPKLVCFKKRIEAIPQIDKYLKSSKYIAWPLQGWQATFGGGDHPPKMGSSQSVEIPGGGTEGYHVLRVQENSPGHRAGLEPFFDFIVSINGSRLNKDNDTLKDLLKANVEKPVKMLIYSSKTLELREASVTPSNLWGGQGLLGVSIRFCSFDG
T5 sequence (chain, as listed by the source): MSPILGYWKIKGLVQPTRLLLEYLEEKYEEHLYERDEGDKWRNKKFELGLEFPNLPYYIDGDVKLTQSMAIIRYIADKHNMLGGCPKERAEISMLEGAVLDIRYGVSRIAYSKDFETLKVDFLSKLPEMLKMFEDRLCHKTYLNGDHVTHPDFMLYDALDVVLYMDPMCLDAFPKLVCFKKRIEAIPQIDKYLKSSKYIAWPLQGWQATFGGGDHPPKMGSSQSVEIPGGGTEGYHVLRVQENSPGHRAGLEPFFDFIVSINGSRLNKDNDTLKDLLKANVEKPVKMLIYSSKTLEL
T8 sequence (chain, as listed by the source): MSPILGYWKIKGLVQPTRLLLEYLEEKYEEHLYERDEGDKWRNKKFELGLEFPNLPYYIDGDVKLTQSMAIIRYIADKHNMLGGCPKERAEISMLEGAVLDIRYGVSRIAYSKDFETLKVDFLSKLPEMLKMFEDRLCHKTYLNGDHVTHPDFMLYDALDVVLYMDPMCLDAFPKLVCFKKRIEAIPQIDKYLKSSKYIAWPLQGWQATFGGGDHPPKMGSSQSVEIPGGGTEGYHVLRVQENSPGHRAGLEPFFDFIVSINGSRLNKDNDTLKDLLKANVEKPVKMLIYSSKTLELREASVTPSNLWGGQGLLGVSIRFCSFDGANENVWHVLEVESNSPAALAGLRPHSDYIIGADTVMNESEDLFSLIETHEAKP

Row | Binder | binding result [1] | binding result [2] | binding result [3] | binding result [4] | further results
1 | TCYAQRKGYFSKETSFQKGSPASKVTTMSENDFKHTKSFII (other, not shown: Gal4 domain of the two-hybrid vector) [JAM-B cytoplasmic C-terminal construct, yeast two-hybrid] | no binding | no binding | binds | binds | –
2 | JAM-B, endogenous mouse protein immunoprecipitated with rat mAb JB4 (receptor, also called junctional adhesion molecule B) FSASKDHRQEVTVIEFQEAILACKTPKKTTSSRLEWKKVGQGVSLVYYQQALQGDFKDRAEMIDFNIRIKNVTRSDAGEYRCEVSAPTEQGQNLQEDKVMLEVLVAPAVPACEVPTSVMTGSVVELRCQDKEGNPAPEYIWFKDGTSLLGNPKGGTHNNSSYTMNTKSGILQFNMISKMDSGEYYCEARNSVGHRRCPGKRMQVDVLNISGIIATVVVVAFVISVCGLGTCYAQRKGYFSKETSFQKGSPASKVTTMSENDFKHTKSFII | – | – | – | – | binding result [5]: binds
3 | JAM-C, endogenous mouse protein immunoprecipitated with rat mAb 19H36 (receptor, also called junctional adhesion molecule C) EAVNLKSSNRNPVVHEFESVELSCIITDSQTSDPRIEWKKIQDGQTTYVYFDNKIQGDLAGRTDVFGKTSLRIWNVTRSDSAIYRCEVVALNDRKEVDEITIELIVQVKPVTPVCRIPAAVPVGKTATLQCQESEGYPRPHYSWYRNDVPLPTDSRANPRFQNSSFHVNSETGTLVFNAVHKDDSGQYYCIASNDAGAARCEGQDMEVYDLNIAGIIGGVLVVLIVLAVITMGICCAYRRGCFISSKQDGESYKSPGKHDGVNYIRTSEEGDFRHKSSFVI | – | – | – | – | binding result [5]: binds
4 | JAM-A, endogenous mouse protein immunoprecipitated with rat mAb H202 (receptor, also called junctional adhesion molecule A) KGSVYTAQSDVQVPENESIKLTCTYSGFSSPRVEWKFVQGSTTALVCYNSQITAPYADRVTFSSSGITFSSVTRKDNGEYTCMVSEEGGQNYGEVSIHLTVLVPPSKPTISVPSSVTIGNRAVLTCSEHDGSPPSEYSWFKDGISMLTADAKKTRAFMNSSFTIDPKSGDLIFDPVTAFDSGEYYCQAQNGYGTAMRSEAAHMDAVELNVGGIVAAVLVTLILLGLLIFGVWFAYSRGYFETTKKGTAPGKKVIYSQPSTRSEGEFKQTSSFLV | – | – | – | – | binding result [5]: binds
5 | ICCAYRRGCFISSKQDGESYKSPGKHDGVNYIRTSEEGDFRHKSSFVI (other, also called JAM-C C-terminal region; not shown: Gal4 domain of the two-hybrid vector) [JAM-C cytoplasmic C-terminal construct, yeast two-hybrid] | no binding | no binding | binds | binds | binding result [6]: binds; binding result [7]: binds; binding result [8]: no binding
6 | NYIRTSEEGDFRHKSSFVI (also: biotinylated (position not given here), also called JAM-C peptide; biotinylated JAM-C) [biotinylated peptide corresponding to the last 19 amino-acids of JAM-C] | – | – | – | – | binding result (GST-GRASP55 PDZ I): no binding
7 | ADAM17 C-terminal sequence, yeast two-hybrid construct (other, not shown: Gal4 domain of the two-hybrid vector) CVDKKLDKQYESLSLFHHSNIEMLSSMDSASVRIIKPFPAPQTPGRLQALQPAAMMPPVSAAPKLDHQRMDTIQEDPSTDSHVDDDGFEKDPFPNSSTAAKSFEDLTDHPVTRSEKAASFKLQRQSRVDSKETEC | binds | no binding | no binding | – | binding result [6]: no binding; binding result [7]: no binding; binding result [8]: no binding
8 | SKVTTMSENDFKHTKS (also: biotinylated (position not given here), also called JAM-BΔ) [biotinylated JAM-B control peptide, last 19 amino-acids deleted of the last three amino-acids] | – | – | – | – | binding result [9]: no binding
9 | NYIRTSEEGDFRHKSSFVI (also called JAM-C unlabelled peptide) [non-biotinylated (unlabelled) JAM-C peptide] | – | – | – | – | fold increase in EC50 against GST-PDZI′+II′ and GST-GraspFL [10]: 20 fold
10 | NYIRTSEEGDFRHKSS (also: biotinylated (position not given here), also called JAM-CΔ) [biotinylated JAM-C control peptide ΔPDZbm, lacking the last three amino-acids] | – | – | – | – | binding result [11]: no binding; binding result [12]: no binding (tested: 1.9*10^-7M peptide); binding result [13]: no binding (tested: 1.9*10^-7M peptide); binding result (GST-GRASP55 PDZ I+II): no binding

Continued, in another order:

Row | binding result [1] | binding result [2] | binding result [3] | binding result [4] | Binder | further results
11 | no binding | no binding | no binding | no binding | ICCAYRRGCFISSKQDGESYKSPGKHDGVNYIRTSEEGDFRHKSS (other, End at 307 worked out from 'deletion of the last three amino-acids' of 263-310; not shown: Gal4 domain of the two-hybrid vector) [JAM-C ΔPDZbm, yeast two-hybrid construct lacking the last three amino-acids] | binding result [6]: no binding; binding result [7]: no binding; binding result [8]: no binding
12 | – | no binding | – | – | ADAM10 C-terminal sequence, yeast two-hybrid construct (other, not shown: Gal4 domain of the two-hybrid vector) FIKICSVHTPSSNPKLPPPKPLPGTLKRRRPPQPIQQPPRQRPREYQMGHMRR | binding result [6]: no binding; binding result [8]: no binding
13 | no binding | no binding | no binding | no binding | TCYAQRKGYFSKETSFQKGSPASKVTTMSENDFKHTKS (other, End at 295 worked out from 'deletion of the last three amino-acids' of 258-298; not shown: Gal4 domain of the two-hybrid vector) [JAM-B ΔPDZbm, yeast two-hybrid construct lacking the last three amino-acids] | –
14 | no binding | no binding | no binding | no binding | AYSRGYFETTKKGTAPGKKVIYSQPSTRSEGEFKQTS (other, End at 296 worked out from 'deletion of the last three amino-acids' of 260-299; not shown: Gal4 domain of the two-hybrid vector) [JAM-A ΔPDZbm, yeast two-hybrid construct lacking the last three amino-acids] | –
